Substitutions are numbered along the chain they refer to.

T1: ABCG2 (Homo sapiens, UniProt Q9UNQ0)
T1 construct: expressed in transfected cells
T1 sequence (Q9UNQ0 1-655): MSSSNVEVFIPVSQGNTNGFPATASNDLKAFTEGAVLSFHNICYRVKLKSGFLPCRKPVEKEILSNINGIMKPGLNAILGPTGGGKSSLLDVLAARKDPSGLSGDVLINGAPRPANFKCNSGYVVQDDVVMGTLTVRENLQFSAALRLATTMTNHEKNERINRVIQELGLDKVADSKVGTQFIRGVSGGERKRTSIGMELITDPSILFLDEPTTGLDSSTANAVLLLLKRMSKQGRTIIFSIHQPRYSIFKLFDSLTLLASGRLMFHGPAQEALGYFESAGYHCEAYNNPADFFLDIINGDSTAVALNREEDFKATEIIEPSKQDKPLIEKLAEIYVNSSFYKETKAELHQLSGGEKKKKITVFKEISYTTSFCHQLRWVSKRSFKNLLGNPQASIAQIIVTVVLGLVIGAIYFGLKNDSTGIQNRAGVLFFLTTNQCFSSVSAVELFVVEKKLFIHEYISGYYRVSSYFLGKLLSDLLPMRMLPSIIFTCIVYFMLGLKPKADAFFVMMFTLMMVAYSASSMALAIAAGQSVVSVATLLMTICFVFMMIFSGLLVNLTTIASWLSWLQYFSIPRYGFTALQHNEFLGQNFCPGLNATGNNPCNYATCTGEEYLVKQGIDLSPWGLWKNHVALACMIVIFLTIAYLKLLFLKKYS

B1: G2.420 rat: anti-ABCG2 antibody raised in rat (antibody, V domains shown)
VH: SVQLMESGPGLVQPSQTLSLTCTVSGFSLNSYNVNWVRQPPGKGLEWIAAISSGGSTYYNSVLKSRLSITRDTSKSQVFLKMNSLQTEDTAMYFCARSGYYSSYMNWGQGVMVTVSS
VL: DVVMTQTPPTLSATIGQSVSISCRSSQSLLHSTGNTYLNWLLQRPGQPPQLLIYLVSRLEYGVPNRFSGSGSGTDFTLKISGVEAEDLGVYYCAQSTHALNTFGAGTKLELK
B2: G2.641 rat: anti-ABCG2 antibody raised in rat (antibody, V domains shown)
VH: EVKLEESGGGLVQPGRSLKLSCAASGFTFSRFYMAWVRQAPTKGLEWVAHISHGGDTTYYRDSVKGRFTISRDNAKSTLFLQMDSLRSEDTATYYCTTSAAPWNYVMDGWGLGASVTVSS
VL: DIQMTQSPSLLSASVGDRVTLTCKGSQNINNFLAWYQQKLGEAPKLLIYKTNSLHTGIPSRFSGSGSGTDYTLTISSLHSEDLATYYCYQYNNGYTFGAGTKLELK
B3: G2.318 rat: anti-ABCG2 antibody raised in rat (antibody, V domains shown)
VH: EVKLLESGPGLVKPSQSLSLTCSVTGYTITSGYDWSWIRKFPGNKMEWMGYISYSGWTNYNPSLRSRISISRDTSKNQFFLQLNSVTTEDTATYYCARVRGYNPFAYWGQGTLVTVSS
VL: DIVMTQSPSLLSASVGDRVTLSCKAGQNINNYLAWYQQKLGEAPKLLIYNANSLQTGIPSRFSGSGSGTDFTLTISSLQPEDVATYFCQQYNSWTTFGSGTKLEIK
B4: G2.320 rat: anti-ABCG2 antibody raised in rat (antibody, V domains shown)
VH: EVQLEESGPGLVKPSQSLSLTCSVTGYTITSGYDWTWIRKFPGNKMEWMGYISYSGFTNYNPSLRSRISITRDTSKNQFFLQLNSVTTEDTATYYCTRTRGYNPFAYWGQGASVSSAS
VL: B3 VL with Q27R, E42K, A51T
B5: G2.630 rat: anti-ABCG2 antibody raised in rat (antibody, V domains shown)
VH: B4 VH with E5V, A112T, S113L, S115T, S116V, A117S
VL: B3 VL with I2V, Q27R, E42K, A51T
B6: G2.173 mouse: anti-ABCG2 antibody raised in mouse, listed in Table 2 (antibody, V domains shown)
VH: QVQLQQSGADLVRPGASVKLSCTASGFNIKDDYVHWVKQRPEQGLEWIGRIDPANGNTRYAPKFRGKATMTADTSSNTAYLQLSSLTSADTAVYYCSPPLWVGGFAYWGQGTLVTVSS
VL: DVVMTQTPLSLPVSLGDQASISCRSSQSLVHSDVNTYLHWYLQRPGQSPKLLIYKVSNRFSGVPDRFSGSGSGTDFTLKISRVESEDLGIYFCSQTTHVPYTFGGGTKLEIK
B7: G2.173 Humanized 2: humanized version of anti-ABCG2 antibody G2.173 (antibody, V domains shown)
VH: EVQLVQSGAEVKKPGASVKVSCKASGFNIKDDYVHWVRQAPGQGLEWIGRIDPAQGNTRYAPKFRGRATMTADTSISTAYMELSRLRSDDTAVYYCSPPLWVGGFAYWGQGTLVTVSS
VL: B6 VL with T7S, S14T, D17Q, Q18P, L42Q, K50R, S85A, L88V, I90V
B8: G2.173 Humanized 3: humanized version of anti-ABCG2 antibody G2.173 (antibody, V domains shown)
VH: B7 VH with Q55S
VL: B6 VL with T7S, S14T, D17Q, Q18P, L42Q, K50R, S85A, L88V, I90V
B9: G2.173 Humanized 1: humanized version of anti-ABCG2 antibody G2.173 (antibody, V domains shown)
VH: B7 VH with Q55N
VL: B6 VL with T7S, S14T, D17Q, Q18P, L42Q, K50R, S85A, L88V, I90V
B10: G2.643: Anti-G2 antibody raised in rats (antibody, V domains shown)
VH: VNLVESGPELVKPGTSVKISCKASGYRFTSYYVHWVKQRPGQGLEWIGWIFPGSDNTKYNEKFKGKATLTADTSSSTAYMQLSSLTSEDSAVYFCASIYYGYDGTLYFDYWGQGTSVTVSS
VL: DIVMTQSHTFMSTSVGDRVSVTCKASQNVGNNVAWYQQKPGQSPNALIYSASYRYSGVPDRFTGSGSGTDFTLTISNVQSEDLAEYFCQQYDRYPLTFGGGTKLEIK

For one series, the target named is T1, ABCG2. Nature of the series: Flow cytometry binding to 293T cells overexpressing human ABCG2 (293T_ABCG2_OX). Also noted: key to Binding by FACS: binding=“+”; non-significant binding=“−”. The note with it: 293T_ABCG2_OX cells. The protocol: (§1) Cell Binding Assays. Antibody binding to cells was evaluated by flow cytometry. 293T cells stably transfected to express human or cynomolgus ABCG2 (293T_ABCG2_OX) were washed once in flow cytometry buffer (PBS+2% FBS+0.02% sodium azide), resuspended at 2×10^6 cells/mL in flow cytometry buffer, and dispensed into 96-well microtiter plates at 0.1 mL/well. Recombinant antibodies were added to cells at 5 ug/mL for initial binding confirmation, or serially diluted from 100 ug/mL in flow cytometry buffer. After incubating cells on ice for 30 min, cells were washed twice with flow cytometry buffer. Bound antibody was detected with PE-labeled F(ab′)2 fragment goat anti-human IgG (Jackson ImmunoResearch) and evaluated on an Attune NxT flow cytometer. EC50 is calculated to be the concentration of antibody that gives half maximal response.
For orientation: Flow cytometry measures light scatter and fluorescence of single cells or particles in a stream.
Regarding B1, the “Binding by FACS” value is on record as “+”.
Regarding B2, the “Binding by FACS” value was “+”.
On the same count and under the same terms, to B3 belongs “+”.
Same read-out and setting: to B4 belongs “+”; to B5, “+”; to B6, “+”.
Still for that read-out and setting: to B7 belongs “+”; to B8, “+”.
Turning to B9, the “Binding by FACS” value was “+”.

Staying with this series, now noted: 293T_ABCG2_OX cells; read-out: Affinity for human ABCG2.
Consider B3, for which the Kd was 41 nM.
For B4, the Kd amounted to 58 nM.

The same series, now with this note: in words; FIGS. 7-11, 21.
Turning to B10, the “binding to 293T cells overexpressing human ABCG2” value was “strong binding”.

Staying with this series, now noted: in words; FIGS. 7-11, 21; listed as G.643.
Regarding B10, the “binding to 293T cells overexpressing human ABCG2” value is “did not show significant binding”.

The next series relates to cynomolgus ABCG2. Briefly: Flow cytometry binding to 293T cells overexpressing cynomolgus ABCG2. Also noted: key to Cynomolgus ABCG2 binding: binding=“+”; non-significant binding=“−”.
Chain of cynomolgus ABCG2 (as listed by the source): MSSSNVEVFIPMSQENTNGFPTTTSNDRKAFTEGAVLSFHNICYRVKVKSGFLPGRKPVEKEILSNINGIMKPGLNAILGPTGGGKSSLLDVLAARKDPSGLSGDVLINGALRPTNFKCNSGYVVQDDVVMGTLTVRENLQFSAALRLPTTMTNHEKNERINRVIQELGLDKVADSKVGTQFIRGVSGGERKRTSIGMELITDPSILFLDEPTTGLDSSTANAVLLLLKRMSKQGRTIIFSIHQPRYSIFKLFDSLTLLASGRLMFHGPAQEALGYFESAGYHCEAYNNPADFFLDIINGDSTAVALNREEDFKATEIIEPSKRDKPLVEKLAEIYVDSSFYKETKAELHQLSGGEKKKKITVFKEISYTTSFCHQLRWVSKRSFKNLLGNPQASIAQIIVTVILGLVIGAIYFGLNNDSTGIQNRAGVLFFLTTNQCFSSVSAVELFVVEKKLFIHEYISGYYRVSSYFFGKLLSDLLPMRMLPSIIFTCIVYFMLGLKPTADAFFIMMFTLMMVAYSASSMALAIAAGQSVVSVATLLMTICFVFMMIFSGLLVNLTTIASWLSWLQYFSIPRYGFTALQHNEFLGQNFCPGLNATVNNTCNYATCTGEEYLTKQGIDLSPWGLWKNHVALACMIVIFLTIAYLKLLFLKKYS
Conditions: not given
The protocol: as §1
B1: the “Cynomolgus ABCG2 binding” value is listed as “+”.
Same read-out and setting: to B2 belongs “+”.
Still for that read-out and setting: to B3 belongs “+”.
As for B4, the “Cynomolgus ABCG2 binding” value was “+”.
Take B5: the “Cynomolgus ABCG2 binding” value is “+”.
Still for that read-out and setting: to B6 belongs “−”.
Same read-out and setting: to B7 belongs “−”; to B8, “−”; to B9, “−”.

The same series, now with this note: in words; FIGS. 7-11, 21.
In the case of B10, the “binding to 293T cells overexpressing cynomolgus ABCG2” value is listed as “strong binding”.

Staying with this series, now noted: in words; FIGS. 7-11, 21; listed as G.643.
For B10, the “binding to 293T cells overexpressing cynomolgus ABCG2” value was “did not show significant binding”.

Another series concerns 293T_ABCG2_OX cells.
Assay: not given
Conditions: not given
It counts as cell-based, human. The protocol: Cytotoxicity Assays. The effect of antibodies on topotecan cytotoxicity was evaluated on 293T_ABCG2_OX cells, 293T cells stably transfected to express ABCG2. Cells were plated in 0.05 mL of Assay Media (DMEM+10% FBS) at 5000 cells/well in white, flat bottom 96-well tissue culture plates. Topotecan was prepared at 2× final assay concentration by serial dilution from 200 uM in assay media containing test antibodies or control antibodies at 100 ug/mL (2× final concentration), or Fumitremorgin C, a small molecule ABCG2 inhibitor at 20 uM (2× final concentration). An equivalent volume (0.05 mL) of the topotecan/antibody mixture was added to the 293T_ABCG2_OX cells in 96-well plates. The plates were then incubated at 37° C., in 5% CO2. After 72-96 hr plates were equilibrated to room temperature and cell viability assessed using Promega® CellTiter-Glo® Luminescent Cell Viability Assay according to the manufacturer's recommended protocol. Luminescence was measured on a Molecular Devices® FlexStation® 3 Multi-Mode Microplate Reader and data analyzed using GraphPad Prism 8.0 software. Half maximal inhibitory concentration (1050) is the concentration of drug (topotecan or other chemotherapy cytotoxic agent) where the response (cell growth) is reduced by 50%.
For B1, the “effect on topotecan cytotoxicity on 293T_ABCG2_OX cells” value is “significantly increased the cytotoxic activity of topotecan”.
Turning to B10, the “effect on topotecan cytotoxicity on 293T_ABCG2_OX cells” value is listed as “significantly increased the cytotoxic activity of topotecan”.

The series is the same for the next values; noted with them: cell killing by topotecan on 293T_ABCG2_OX cells; viability relative to IgG control.
In the case of B2, the Killing entry was “++ (viability ≥10% and <30% of IgG control)”.
On the same count and under the same terms, then B3, with “+ (viability ≥30% and <50% of IgG control)”; and B4, with “+ (viability ≥30% and <50% of IgG control)”.
Still for that read-out and setting: then B5, with “+ (viability ≥30% and <50% of IgG control)”; and B6, with “− (≥75% of IgG control)”; and B7, with “− (≥75% of IgG control)”.
Still for that read-out and setting: to B8 belongs “− (≥75% of IgG control)”; to B9, “− (≥75% of IgG control)”.

A further series deals with T1, ABCG2.
Assay: not given
Format: cell-based.
Conditions: not given
The protocol:
293T_ABCG2_OX cells were washed several times and aliquoted into 96-well plates as 50 μl aliquots/well at a cell density of 2×10e6 cells per ml in phenol red-free DMEM. Cells were mixed with 50 μl antibodies or the small molecule inhibitors of ABCG2:-fumitremorgin C (FTC), or its tetracyclic analogue K0143, with a final concentration of 1 μM. Cells were then incubated in the presence of 2.5 μM Mitoxantrone 1 h at 37° C. The cells were subsequently washed twice and finally resuspended in […] PBS. Mitoxantrone fluorescence was measured using excitation at 635 nm and emission at 647 nm. Protocols was measuring efflux blockade are found in Szabo E, et al., PLoS One. 2018 Jan. 17; 13(1):e0190629; Deeken J F, et al., Mol Pharmacol. 2009 November; 76(5):946-56).
As for B1, the “Block Efflux” value is “+”.
On the same count and under the same terms, then B2, with “++”.
On to B3, for which the “Block Efflux” value was “+” and the efflux inhibition activity result is on record as “strong efflux inhibition activity”.
B4: the “Block Efflux” value is given as “+”.
On the same count and under the same terms, to B5 belongs “+”; to B6, “−”.
On the same count and under the same terms, then B7, with “−”.
On the same count and under the same terms, to B8 belongs “−”; to B9, “−”.
